# Substitutions are numbered along the chain they refer to.
# B1: C19 (antibody, human IgG4 S228P, lambda, V domains shown)
# VH: EVQLLESGGGLVQPGGSLRLSCAASGFTFSGYAMSWVRQAPGKGLEWVSGIYHDGGSTYYADSVKGRFTISRDNSKNTLYLQMNSLRAEDTAVYYCARVTVLCTTYGCSSYDGMDVWGQGTLVTVSS
# VL: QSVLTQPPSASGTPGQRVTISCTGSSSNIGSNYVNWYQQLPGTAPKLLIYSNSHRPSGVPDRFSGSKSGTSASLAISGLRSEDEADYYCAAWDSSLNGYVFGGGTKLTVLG
# B2: C18 (antibody, human IgG4 S228P, lambda, V domains shown)
# VH: EVQLLESGGGLVQPGGSLRLSCAASGFTFSNYDMSWVRQAPGKGLEWVSGISHSSGSKYYADSVKGRFTISRDNSKNTLYLQMNSLRAEDTAVYYCARDPLPCLIPKCSYYYAMDVWGQGTLVTVSS
# VL: QSVLTQPPSAPGTPGQRVTISCSGSSSNIGSNAVTWYQQLPGTAPKLLIYADSHRPSGVPDRFSGSKSGTSASLAISGLRSEDEADYYCGSWDDSLNAYVFGGGTKLTVLG
# B3: C22 (antibody, human IgG4 S228P, lambda, V domains shown)
# VH: EVQLLESGGGLVQPGGSLRLSCAASGFTFSDYDMSWVRQAPGKGLEWVSMIYSGSSSKYYADSVKGRFTISRDNSKNTLYLQMNSLRAEDTAVYYCAKAPLPFYFRPKSYYYAMDVWGQGTLVTVSS
# VL: B2 VL with P11S, A33N, D52N, D94S
# B4: C15 (antibody, human IgG4 S228P, lambda, V domains shown)
# VH: EVQLLESGGGLVQPGGSLRLSCAASGFTFSSYSMSWVRQAPGKGLEWVSSISPNGGNKYYADSVKGRFTISRDNSKNTLYLQMNSLGAEDTAVYYCAKDPYNIYQPLFDYWGQGTLVTVSS
# VL: QSVLTQPLSASGTPGQRVTISCSGSSSNIGNNYVNWYQQLPGTAPKLLIYANSNRPSGVPDRFSGSKSGTSASLAISGLRSEEEADYYCGTWDASLSAYVFGGGTKLTVLG
# B5: C17 (antibody, human IgG4 S228P, lambda, V domains shown)
# VH: EVQLLESGGGLVQPGGSLRLSCAASGFTFSDYSMSWVRQAPGKGLEWVSVIYPDDGNTYYADSVKGRFTISRDNSKNTLYLQMNSLRAEDTAVYYCARGSIWWLSLIPSSYNAMDVWGQGTLVAVSS
# VL: B4 VL with L8P, Y33A, N54H, E83D, T91A, S97N, A98G
# B6: C25 (antibody, human IgG4 S228P, lambda, V domains shown)
# VH: EVQLLESGGGLVQPGGSLRLSCAASGFTFSNYAMSWVRQAPGKGLEWVSVISHGGGSIYYADSVKGRLTISRDNSKNTLYLQMNSLRAEDTAVYYCARDPTKGYAPTFDYWGQGTLVTVSS
# VL: B4 VL with L8P, N35S, N52D, N54K, E83D, T91A, S97N, A98G
# notes: Made in ExpiHEK293F cells, protein A purified. huIgG4 is the isotype control and anti-huIgG4 the detection reagent; the isotype is not otherwise stated; also called anti-CEACAM1 antibody C25
# B7: 4R9 (antibody, human IgG4 S228P, lambda, V domains shown)
# VH: B6 VH
# VL: B2 VL with P11S, S31N, A33Y, T35S, H54R, S91A, D94L, A98G
# notes: also called C25-derived clone 4R9
# B8: 4R26 (antibody, human IgG4 S228P, lambda, V domains shown)
# VH: B6 VH
# VL: B2 VL with P11S, S31N, A33Y, T35S, H54K, P56L, S91A, D94G, S95R, A98G
# notes: also called C25-derived clone 4R26
# B9: 4R9_H2-2 (antibody, human IgG4 S228P, lambda, V domains shown)
# VH: B6 VH with T107L
# VL: B2 VL with P11S, S31N, A33Y, T35S, H54R, S91A, D94L, A98G
# notes: also called C25-derived clone 4R9_H2-2
# B10: 4R9_H4-n20 (antibody, human IgG4 S228P, lambda, V domains shown)
# VH: B6 VH with T28N
# VL: B2 VL with P11S, S31N, A33Y, T35S, H54R, S91A, D94L, A98G
# notes: also called C25-derived clone 4R9_H4-n20
# Target: T1, recombinant human CEACAM-1/CD66a protein (R&D systems; Cat. No. 2244-CM) (human, UniProt P13688 35-428)
# T1 construct: Bought protein; captured on anti-His (His1K) biosensors in the Octet assay, so it carries a His tag; also called HCCM1; recombinant CEACAM-1/CD66a protein
# T1 sequence (looked up): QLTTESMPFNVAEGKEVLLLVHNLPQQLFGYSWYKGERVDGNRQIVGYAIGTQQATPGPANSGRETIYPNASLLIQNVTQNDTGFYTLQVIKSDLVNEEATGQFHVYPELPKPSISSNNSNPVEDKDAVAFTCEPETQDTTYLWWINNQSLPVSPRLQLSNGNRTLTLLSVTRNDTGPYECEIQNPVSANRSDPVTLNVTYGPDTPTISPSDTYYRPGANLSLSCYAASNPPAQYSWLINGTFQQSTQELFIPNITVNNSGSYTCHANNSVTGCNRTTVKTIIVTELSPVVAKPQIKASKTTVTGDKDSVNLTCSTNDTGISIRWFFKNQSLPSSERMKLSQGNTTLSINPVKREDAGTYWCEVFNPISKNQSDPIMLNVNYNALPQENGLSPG
# Assay: ELISA on coated antigen (0.25 µg/ml), antibody 3 µg/ml, HRP anti-human IgG Fc, OD450
# Excerpt: (§1) All of the recombinant human CEACAM-1/CD66a protein (R&D systems; Cat No. 2244-CM, HCCM1), recombinant human CEACAM-5/CD66e protein (R&D systems; Cat. No. 4128-CM, HCCM5), recombinant human CEACAM-6/CD66c protein (R&D systems; Cat. No. 3934-CM, HCCM6), recombinant human CEACAM-3/CD66d protein (Sino Biological; Cat. No. 11933-H08H, HCCM3), human B7-H5/Gi24/VISTA protein (Sino Biological; Cat. No. 13482-H08H, HVISTA), recombinant human CEACAM-1/CD66a protein Bulk (R&D systems; Cat. No. 2244-CM, HCCM1 (bulk)), recombinant human CEACAM1-N domain-Kappa protein (Mogam, in-house production, HCCM1-N domain-kappa), and BSA protein (2.5 μg each) were dissolved in 10 ml of PBS, respectively, and dispensed into a 96-well plate at 100 μl/well, which was incubated at 4° C. overnight. Thereafter, each well was treated with 300 μl of 1% (v/v) bovine serum albumin, and incubated at 37° C. for 1 hour.
# (§2) The diluted antibodies were dispensed into each well coated with each protein at 100 μl/well, and incubated at 37° C. for 1 hour. Then, each well was washed 3 times with a washing buffer prepared by diluting 10 μl of Tween 20 (Sigma-Aldrich; Cat. No. P9146) in 990 μl of PBS. Thereafter, 2 μl of HRP-conjugated human anti-IgG-Fc antibody (anti-human IgG Fc, Sigma Cat. No. A0170) was diluted in 10 ml of PBS, added to the wells at 100 μl/well, and incubated for 1 hour.
# (§3) After completion of the reaction, the wells were washed three times with the washing buffer, and 100 μl of TMB solution was added to each well to induce color development. Then, 100 μl of 2 M H₂SO₄ was added to each well to stop the reaction, and the absorbance was measured at a wavelength of 450 nm.
row,Binder,binding result
1,B1,binds
2,B2,binds
3,B3,binds

# Target: T2, recombinant human CEACAM1-N domain-Kappa protein (Mogam, in-house production) (human, UniProt P13688 35-142, limits assumed)
# T2 construct: domain: N domain; In-house fusion; also called HCCM1-N domain-kappa; HCCM1-N-domain-kappa
# T2 sequence (looked up): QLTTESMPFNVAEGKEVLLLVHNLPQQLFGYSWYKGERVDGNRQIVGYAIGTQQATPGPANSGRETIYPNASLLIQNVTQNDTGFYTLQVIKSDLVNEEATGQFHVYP
# Assay: as above
# Excerpt: as §1, §2, §3
row,Binder,binding result
1,B4,binds
2,B1,binds
3,B2,binds
4,B5,binds
5,B3,binds

# Target: T3, recombinant human CEACAM-5/CD66e protein (R&D systems; Cat. No. 4128-CM) (human, UniProt P06731 35-685)
# T3 construct: Bought protein; also called HCCM5
# T3 sequence (looked up): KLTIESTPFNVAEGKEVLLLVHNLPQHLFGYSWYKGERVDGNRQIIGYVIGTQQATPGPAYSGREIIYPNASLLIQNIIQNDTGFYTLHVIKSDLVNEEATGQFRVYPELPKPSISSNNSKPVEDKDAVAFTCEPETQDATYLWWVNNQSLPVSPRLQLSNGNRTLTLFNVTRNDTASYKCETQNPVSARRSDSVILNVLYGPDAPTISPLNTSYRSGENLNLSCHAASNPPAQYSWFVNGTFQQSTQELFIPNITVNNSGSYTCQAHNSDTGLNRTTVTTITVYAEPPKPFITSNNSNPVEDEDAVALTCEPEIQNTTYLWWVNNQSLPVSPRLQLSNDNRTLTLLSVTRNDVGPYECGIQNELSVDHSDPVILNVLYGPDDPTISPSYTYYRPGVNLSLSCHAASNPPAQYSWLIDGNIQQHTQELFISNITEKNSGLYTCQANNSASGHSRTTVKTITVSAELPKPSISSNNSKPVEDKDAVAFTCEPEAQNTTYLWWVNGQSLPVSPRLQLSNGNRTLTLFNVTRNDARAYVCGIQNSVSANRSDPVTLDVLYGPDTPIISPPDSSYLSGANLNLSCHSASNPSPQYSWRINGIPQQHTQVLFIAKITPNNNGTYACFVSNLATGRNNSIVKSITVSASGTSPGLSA
# Assay: as above
# Excerpt: as §1, §2, §3
row,Binder,binding result
1,B1,binds
2,B5,binds
3,B3,binds

# Target: T1, recombinant human CEACAM-1/CD66a …
# Assay: Octet QKe biolayer interferometry, anti-His (HIS1K) biosensors, antibody 6.25-400 nM
# Protocol: The last well in each row was with a sample at the antibody concentration of 0 nM. Recombinant human CEACAM1 protein (R&D Systems; Cat. No. 2244-CM) was diluted to obtain a concentration of […], and dispensed into each well of another column at 200 μl/well.
# As for the washing buffer, neutralization buffer and baseline buffer, Reagent/Kinetics buffer (10×) (Fortebio; Cat. No. 18-1092) were 1:10 diluted and dispensed into each well of a column in a row at 200 μl/well, and the regeneration buffer was dispensed into each well at 200 μl/well. Greiner 96-well plate was separately prepared, Reagent/Kinetics buffer (1×) was dispensed into each well of the number of biosensors to be used in a row at 200 μl/well, and Biosensors/Anti-His (His1K) (Fortebio; Cat. No. 18-5120) cassette was installed.
Binder,Kd [nM],koff [s⁻¹],kon [M⁻¹ s⁻¹]
B6,34.9,0.000505,18200
B7,3.39,0.000567,163000
B8,1.82,0.000266,133000
B9,3.54,0.000627,169000
B10,39,0.000333,26100
